This note sets out measurements from patent US12180255B2, “Compositions and methods for derepressing RE1 silencing transcription factor target genes” (Alcamena Stem Cell Therapeutics, LLC, priority 2019, dated 2024).

[ ]: non-standard residue; d: D form. ξ: configuration not given here. ξGly(dodecyl) = CCCCCCCCCCCCC(N)C(=O)O

One experiment concerns L5 DRGs. The experiment can be described thus: qRT-PCR mRNA expression in ex vivo cultured L5 DRGs. It is filed as cell-based, Sprague Dawley rat. The settings on record: DRG; 1 μM; 48 h. As to the method: FIG. 15. […] Error bars =standard error of the mean.
L5 DRGs were dissected from adult male rats and plated in 12-well plates pre-coated with poly-D-Lysine (PDL) and laminin in a minimal volume of medium (250 ul Neurobasal™-A medium (GIBCO) supplemented with B27 (GIBCO), 50 ng/ml NGF (Sigma-Aldrich) and penicillin streptomycin) to allow attachment to the culture plate. One day after plating, DRGs were incubated with RPP (SEQ. ID NO: 12: 1 μM, 3 μM or 10 μM in culture medium, FIGS. 14 and 16; SEQ ID NOS: 13 and 14: 3 μM, FIG. 15) for 48 h. For RNA expression analysis, DRGs were lysed in 300 μl of Qiazol in a 1.5 ml tube containing Bullet Blender Pink Beads using a Bullet Blender Tissue Homogenizer (NextAdvance). Total RNA was extracted using RNeasy Midi Kit (Qiagen) according to manufacturer's instructions. Purified RNA was quantified with NanoDrop 2000 (ThermoFIsher), and reverse transcription was run using High Capacity cDNA Reverse Transcription Kit (Applied Biosystems) and 2 ng/ul RNA per reaction. For qRT-PCR, 5 ul of cDNA (corresponding to 10 ng of RNA) were mixed with to 10 ul SsoAdvanced™ Universal SYBR® Green Supermix (BioRad) and 1 ul of each primer (final primer concentration 500 nM each). Reactions were run in triplicates in a QuantStudio™ 7 Flex Real-Time PCR system (Applied Biosystems). Amplification data were analyzed using the comparative cycle threshold (ΔΔCt) method and β-actin as calibrator. Primers were as follows: β-actin: F-[…] (SEQ ID NO: 340), R-[…] (SEQ ID NO: 333); KV4.3: F-[…] (SEQ ID NO: 341), R-[…] (SEQ ID NO: 342); KV7.2 F-[…] AG (SEQ ID NO: 343), R-[…] (SEQ ID NO: 344); OPRM1: F-[…] (SEQ ID NO: 345), R-[…] (SEQ ID NO: 346).
With “SEQ ID NO: 14: RPP fused to an intracellular transport peptide and cyclized; sequence in Table 19 (cyclo([dR][dR][ξGly(dodecyl)][dR][dR][dR][dK][dP][dL][dP][dP][dE][dP][dP][dE][dL][dD][dE]); SMILES CCCCCCCCCCCCC1NC(=O)[C@@H](CCCNC(=N)N)NC(=O)[C@@H](CCCNC(=N)N)NC(=O)[C@@H](CCC(=O)O)NC(=O)[C@@H](CC(=O)O)NC(=O)[C@@H](CC(C)C)NC(=O)[C@@H](CCC(=O)O)NC(=O)[C@H]2CCCN2C(=O)[C@H]2CCCN2C(=O)[C@@H](CCC(=O)O)NC(=O)[C@H]2CCCN2C(=O)[C@H]2CCCN2C(=O)[C@@H](CC(C)C)NC(=O)[C@H]2CCCN2C(=O)[C@@H](CCCCN)NC(=O)[C@@H](CCCNC(=N)N)NC(=O)[C@@H](CCCNC(=N)N)NC(=O)[C@@H](CCCNC(=N)N)NC1=O)”, the “Increase, Nav1.8 mRNA” value was found to be 13x.

For a further experiment, the target named is T1, CTDSP1 (Homo sapiens, UniProt Q9GZU7).
T1 construct: GSGS linker + His6 (C)
T1 sequence (Q9GZU7 with tags, fused parts or gaps): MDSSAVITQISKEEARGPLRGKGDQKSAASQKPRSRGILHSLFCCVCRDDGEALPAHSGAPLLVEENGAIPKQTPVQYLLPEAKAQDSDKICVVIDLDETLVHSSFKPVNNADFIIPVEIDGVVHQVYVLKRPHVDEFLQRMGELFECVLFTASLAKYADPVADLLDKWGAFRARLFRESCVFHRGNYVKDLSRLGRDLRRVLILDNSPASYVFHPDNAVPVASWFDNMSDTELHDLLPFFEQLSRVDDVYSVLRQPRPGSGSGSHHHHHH
As to the kind of experiment: In vitro CTDSP1 phosphatase activity on phosphorylated REST peptide. The format is biochemical. The settings on record: 1 μM peptide-GST fusion; relative to GST control; substrate TEDpSPPpSPPLPKEN
The procedure:
FIG. 25. In vitro CTDSP1 phosphatase activity (relative to GST control) on the REST peptide (TEDpSPPp[…] (SEQ ID NO: 329)) as a substrate after exposure to 1 μM of RPP (SEQ ID NO: 1) or one of its variants (Table 3).
FIG. 26. […] N=5, error bars are standard deviation.
Results: FIG. 25—The top 51 most abundant RPP variants identified in the RNA display/protein evolution screen are listed in-Table 3 in the order of most (V1) to least (V51) abundant peptides. The primers used to make these peptides are listed in-Table 5. A phosphatase activity screen (Table 6, FIG. 25) was used to assess the ability of the top 51 RPPV to inhibit CTDSP1 phosphatase activity at amino acids 861 and 864 on the endogenous phosphorylated REST peptide (TEDpSPPp[…] (SEQ ID NO: 329)).
The phosphorylated REST peptide (TEDpSPPp[…] (SEQ ID NO: 329)) was synthesized by GeneScript. Phosphatase reactions were performed with 10 mM Tris pH 8, 10 mM MgCl2, 100 nM CTDSP1, 0.5 μM phosphate sensor (Thermo Fischer), 50 μM of REST peptide and various concentrations of peptide-GST fusions at room temperature for 10 min. All assays were performed in 96-well pates (Corning P/N 3686) rinsed with water 10 times. Fluorescence was measured by BioTek Synergy HTX using kinetic read with excitation at 420/27 nm and emission at 485/20 nm.
As for MCAEDLQPPPLLEAHCGSDSGRKKRRQC [v43], the “Relative Phosphatase activity” value stood at 0.97.

MCAGDLEQPEPPVAKKKKKNC [v33]: the “Relative Phosphatase activity” value was 0.00.

As to MCAGDLKPPETTMSKKNC [v39], the “Relative Phosphatase activity” value was 0.59.

Turning to MCIADPEPPEAQLPEGNC [v14], the “Relative Phosphatase activity” value was 0.54.

For MCNEALEPPPLRKEHC [v36], the “Relative Phosphatase activity” value is listed as 0.68.

Take MCNGDLERPEPPVAKEYC [v34]: the “Relative Phosphatase activity” value stood at 0.74.

Take MCPEDLERPPLTKEHC [v37]: the “Relative Phosphatase activity” value is 0.16.

“MCPEDLQPPEPALPEKKKKKIVVLALVVKSAVSVGVV [v41]”: the “Relative Phosphatase activity” value is given as 0.46.

As for MCPGDLKQPEPPMPKEYC [v11], the “Relative Phosphatase activity” value is recorded as 0.13.

Consider MCSEAQEPPESRLPQVNC [v16], for which the “Relative Phosphatase activity” value was found to be 0.79.

Consider MCSEDPEPPKTTMTKKNC [v31], for which the “Relative Phosphatase activity” value is given as 0.43.

Turning to MCSVDLQPPARLRPMVNC [v20], the “Relative Phosphatase activity” value turned out to be 0.13.

As for MCSVDLQPPARLRPMVNC [v46], the “Relative Phosphatase activity” value is reported as 0.37.

With MCTAAPEPPEPPVSKEYC [v18], the “Relative Phosphatase activity” value amounted to 0.43.

Regarding MCTAAPEPPEPQLPQANC [v44], the “Relative Phosphatase activity” value was 0.53.

In the case of MCTADLEPPEPRMEKKKVDC [v5], the “Relative Phosphatase activity” value was determined as 0.49.

For the substance MCTADLKPPKTTMTKQNC [v10], the “Relative Phosphatase activity” value is 0.84.

With MCTADLQPPEASLPQQNC [v49], the “Relative Phosphatase activity” value is reported as 0.58.

Take MCTEALEPPEPPLTKENC [v47]: the “Relative Phosphatase activity” value was determined as 0.20.

Consider MCTEAPAPPEPALPKKKKKKNC [v26], for which the “Relative Phosphatase activity” value turned out to be 0.46.

For the substance MCTEAPAPPEPALPKKKKKNC [v2], the “Relative Phosphatase activity” value is listed as 0.66.

MCTEAPAPPEPALPKKKKKNC [v27]: the “Relative Phosphatase activity” value was found to be 0.19.

For the substance MCTEAPAPPEPALPKKKKNC [v4], the “Relative Phosphatase activity” value is on record as 0.67.

As to MCTEDLEPPERPLPREIC [v38], the “Relative Phosphatase activity” value is 0.28.

On to MCTEDLEPPKATMTKKDC [v12], for which the “Relative Phosphatase activity” value was 0.41.

With MCTEDLKPPEASLPEENC [v32], the “Relative Phosphatase activity” value worked out at 0.89.

With MCTEDLKPPEPPLPKENC [v35], the “Relative Phosphatase activity” value turned out to be 0.07.

For MCTEDLQLPKTTMTKEYC [v19], the “Relative Phosphatase activity” value amounted to 0.76.

Consider MCTEDLQPPEPQLPEVNC [v23], for which the “Relative Phosphatase activity” value came out at 0.60.

Turning to MCTEDLQPPKTTMAEKYC [v30], the “Relative Phosphatase activity” value amounted to 0.62.

As to MCTEDLQQPERSQPMESC [v40], the “Relative Phosphatase activity” value worked out at 0.29.

As to MCTEDLQSPKTTMTKENC [v7], the “Relative Phosphatase activity” value is 0.24.

For the substance MCTEDLQSPKTTMTKENC [v28], the “Relative Phosphatase activity” value is on record as 0.33.

Turning to MCTEDMEPRKTTMTKKYC [v25], the “Relative Phosphatase activity” value was 0.63.

Take MCTEDQEQQEEQLPEENC [v9]: the “Relative Phosphatase activity” value was determined as 0.65.

Turning to MCTEDQERPPVTKEDC [v13], the “Relative Phosphatase activity” value is given as 0.20.

With “MCTEVLVPRTTSGKGRLWFWLWSQKGHPSASACGS [v42]”, the “Relative Phosphatase activity” value amounted to 0.48.

As for MCTGDLKLPEPPMSKKKKKNC [v29], the “Relative Phosphatase activity” value was found to be 0.17.

On to MCTGDLQPPEAQVIEVNC [v22], for which the “Relative Phosphatase activity” value came out at 0.59.

As to MCTGDLQPPESRQPQVNC [v21], the “Relative Phosphatase activity” value turned out to be 0.26.

In the case of MCTGDLQPPKTTVSKKDC [v6], the “Relative Phosphatase activity” value worked out at 0.77.

For the substance MCTGVQEPPEATLPKKNC [v15], the “Relative Phosphatase activity” value is 0.70.

As for MCTKDLAPQAPPLLKENC [v51], the “Relative Phosphatase activity” value was determined as 0.71.

For the substance MCTKHLEPPGPPLPQENC [v17], the “Relative Phosphatase activity” value is 0.24.

The same experiment, now with this note: 1 μM; relative to control (GST).
Take MCAGDLEQPEPPVAKKKKKNC [v33]: the “inhibition of phosphatase activity” value was 100%.

In the case of MCTEDLEPPEPPLPKENC [v1], the “inhibition of phosphatase activity” value is given as “approximately 60%”.

Consider MCTEDLKPPEPPLPKENC [v35], for which the “inhibition of phosphatase activity” value is “approximately 90%”.
